From patent US20260232828A1, “LIGAND-CYTOTOXICITY DRUG CONJUGATES AND PHARMACEUTICAL USES THEREOF” (HANSOH BIO LLC, priority 2023, published 2026)
Substitutions are numbered along the chain they refer to.

B1: 2F9 anti-CDH17 recombinant antibody (human IgG1) (antibody, V domains shown)
VH: EVQLVESGGGVVRPGGSLRLSCAASGFTFDDYGMSWVRQAPGKGLEWVSGLSWNGGNTYYADSVKGRFTISRDNAKNSLYLQMNSLRAEDTALYYCARGSRYNWNYDAFDIWGQGTLVTVSS
VL: DIQMTQSPSSLSASIGDRVTITCRASQGIRNALGWYQQKPGKAPKRLIYAASNLQSGVPSRFSGSGSGTEFTLTISSLQPEDFATYYCLQHNSYPFTFGPGTKVEIKR
B2: 2F9 (hybridoma clone supernatant) (antibody, V domains shown)
VH: B1 VH
VL: DIQMTQSPSSLSASIGDRVTITCRASQGIRNALGWYQQKPGKAPKRLIYAASNLQSGVPSRFSGSGSGTEFTLTISSLQPEDFATYYCLQHNSYPFTFGPGTKVEIK
notes: Hybridoma supernatant
B3: 9E2 anti-CDH17 recombinant antibody (human IgG1) (antibody, V domains shown)
VH: B1 VH with D31N, L51I, S52N, N57S, K65R, N105S
VL: B1 VL with I15V, I29V, N53S
B4: 9E2 (hybridoma clone supernatant) (antibody, V domains shown)
VH: B1 VH with D31N, L51I, S52N, N57S, K65R, N105S
VL: B2 VL with I15V, I29V, N53S
notes: Hybridoma supernatant
B5: 17F3 anti-CDH17 recombinant antibody (human IgG1) (antibody, V domains shown)
VH: EVQLVESGGGLVKSGGSLRLSCAASGFTFSSYSLKWVRQAPGKGLEWVSSISSSSGYIYYADSVKGRFTISRDNAKNSLYLQMNSLRAEDTAMYYCARAVSTIAARPGYYYYYMDVWGKGTLVTVSS
VL: DIQMTQSPSSVSASIGDRVTITCRASQDISTWFAWYQQKPGKAPKLLIYAASTLRSGVPSRFSGSGSGTDFTLTINSLQPEDFATYYCQQANSFPLTFGGGTKVEIKR
B6: 17F3 (hybridoma clone supernatant) (antibody, V domains shown)
VH: B5 VH
VL: DIQMTQSPSSVSASIGDRVTITCRASQDISTWFAWYQQKPGKAPKLLIYAASTLRSGVPSRFSGSGSGTDFTLTINSLQPEDFATYYCQQANSFPLTFGGGTKVEIK
notes: Hybridoma supernatant
B7: 10E11 (hybridoma clone supernatant) (antibody, V domains shown)
VH: EVQLVQSGTEVKKPGESLKISCKDSGYRFSSYWIGWVRQMPGKGLEWMGIIYPGDSDTRYSPSFQGQVTISADKSISTAYLQWRSLKASDTAMYYCARRGWVNYFDYWGQGTLVTVSS
VL: B6 VL with I15V, D28G, T31N, F33L, A34G, T53S, R55Q, N76S
notes: Hybridoma supernatant
B8: 13C7 anti-CDH17 recombinant antibody (human IgG1) (antibody, V domains shown)
VH: QITLKESGPTLVKPTQTLTLTCTFSGFSLSTSGVGVGWIRQPPGKALEWLALIYWNDDKRYRPSLKNRLTITKDTSKNQVVLTMTNMDPVDTATYYCTHYGVTAPFYNWFDPWGQGTLVTVSS
VL: DIQMTQSPSSLSASVGDRVTITCRASQSITSYLNWYQQKPGKAPKLLIYAASSLQSGVPSRFSGSGSGTDFTLTISSLQPEDFATYYCQRSYSTLTFGGGTKVEIKR
B9: 19C7 anti-CDH17 recombinant antibody (human IgG1) (antibody, V domains shown)
VH: B8 VH with F27I, S32G, A51S, R62S, N67S, T75S, T98A, Y100S, V102L, T103A
VL: B8 VL with T30S, S31N, Q38L, K42N, Y49F, Y87F
B10: 13C7 (hybridoma clone supernatant) (antibody, V domains shown)
VH: B8 VH
VL: DIQMTQSPSSLSASVGDRVTITCRASQSITSYLNWYQQKPGKAPKLLIYAASSLQSGVPSRFSGSGSGTDFTLTISSLQPEDFATYYCQRSYSTLTFGGGTKVEIK
notes: Hybridoma supernatant
B11: 19C7 (hybridoma clone supernatant) (antibody, V domains shown)
VH: B8 VH with F27I, S32G, A51S, R62S, N67S, T75S, T98A, Y100S, V102L, T103A
VL: B10 VL with T30S, S31N, Q38L, K42N, Y49F, Y87F
notes: Hybridoma supernatant
B12: 14B12 (hybridoma clone supernatant) (antibody, V domains shown)
VH: QVQLQESGPGLVKPSETLSLTCTVSGGSINTYYRSWIRQPPGKGLEWIGYIYYSGNTNYNPSLKSRVTISADTSKNQFSLNLISVTAADTAMYYCARAQYGEEAFDIWGQGTLVTVSS
VL: DIQMTQSPSSLSASVGDRVTITCRASQSITTYLNWYQQKPGKAPQLLIFAASRLQTGVPSRFSGSGSGTDFTLTISSLLPGDFATYYCQQSYNTPPTFGGGTKVEIK
notes: Hybridoma supernatant
B13: 1H10 anti-CDH17 recombinant antibody (human IgG1) (antibody, V domains shown)
VH: QVQLVESGGGVVQPGRSLRLSCVASGFTFSSYGMHWVRQAPGKGLEWVTFIWYDGSNKNYADSVKGRFTISRDNSKNTLNLQMNSLRVEDTAVYYCARDRYSSGWDVFDYWGQGTLVTVSS
VL: DIQMTQSPSSVSASVGDRVTITCRASQDISSWLAWYQQQPGKAPKLQIYAASSLQSGVPSRFSGSGSGTDFTLTISSLQPEDFATYYCQQAKSFPPTFGQGTKVEIKR
B14: 1H10 (hybridoma clone supernatant) (antibody, V domains shown)
VH: B13 VH
VL: DIQMTQSPSSVSASVGDRVTITCRASQDISSWLAWYQQQPGKAPKLQIYAASSLQSGVPSRFSGSGSGTDFTLTISSLQPEDFATYYCQQAKSFPPTFGQGTKVEIK
notes: Hybridoma supernatant from mice encoding human heavy and kappa variable regions
B15: 15A4 (hybridoma clone supernatant) (antibody, V domains shown)
VH: B13 VH with V23A, T28N, T49A, I51V, K58Q, K76N, N80Y, V88A
VL: B14 VL with D28G, Q39K, Q47L, Y49F, D70G
notes: Hybridoma supernatant

Assays:
[1] = molecular target: T1, human CDH17 as originally expressed in cells (cell surface CDH17 on AsPC1, GP2d and other cancer cell lines) (human, UniProt Q12864 23-832); experiment: cell-based or functional assay
[2] = molecular target: T1, human CDH17 as originally expressed in …; experiment: flow cytometry titration on CDH17 positive AsPC1 cells
Protocol: To determine the binding of recombinant antibody to cell surface CDH17 receptors, cells were first harvested and resuspended in cell staining buffer (BioLegend, Cat #420201) at 1.3-1.5×10⁶ cells/mL. Then, the cells were treated with human Fc receptor blocking reagent (BioLegend, Cat #422302) on the ice for 10 min. The resulting cell suspension was aliquoted into 50 μL aliquots. […] The cells were incubated on the ice for 1 hour and then washed with cell staining buffer twice. 50 μL of secondary antibody (PE conjugated goat anti-human Fc, eBioscience™, 1:250 dilution) was added to each sample to resuspend the cells. The cells were incubated on the ice for another 20 min. Cells were subsequently washed twice with cell staining buffer and resuspended in 4% PFA to fix the cells. The samples were analyzed using iQue3 to measure the median fluorescence intensity using corresponding channels.

BSA [3] = molecular target: T2, BSA (UniProt P02769 25-607); experiment: ELISA, plate coated with BSA, hybridoma supernatant
T2 construct: Control coating protein of the ELISA
Protocol: (§1) ELISA was performed using the DuoSet ELISA Ancillary Kit (R&D System, DY008). ELISA plates were coated with 1 μg/ml of human CDH17 His Tag (Sino biological, catalog number 11360-H08H), or BSA overnight. Excess unbound proteins were washed off by washing the plates three times with the wash buffer before blocking for 1 hour at room temperature. 100 μl CDH17 hybridoma supernatant was added in each well and incubated for 1 hour at room temperature. Excess unbound antibodies were washed off and 100 μl of 1:30000 diluted secondary antibody Goat anti-mouse IgG Fc-HRP (ab5870) was added to each well for another 1 hour. Plates were washed before the addition 50 μL of […] (color A and color B) according to manufacturer's protocol. The reactions were stopped using 25 μL of stop solution. Optical density at 450 nm of samples was measured by a microplate reader (PerkinElmer).

BSA [4] = molecular target: T2, BSA; experiment: ELISA, plate coated with 1 µg/ml BSA, hybridoma supernatant
Protocol: as §1

[5] = molecular target: T3, human CDH17 His Tag (Sino biological, catalog number 11360-H08H) (human, UniProt Q12864 23-787); experiment: ELISA, plate coated with 1 µg/ml human CDH17 His Tag, hybridoma supernatant
T3 construct: Bought recombinant protein; also called hCDH17; human CDH17 protein; not shown: His tag
Protocol: as §1

T2 sequence (P02769 25-607 limits assumed): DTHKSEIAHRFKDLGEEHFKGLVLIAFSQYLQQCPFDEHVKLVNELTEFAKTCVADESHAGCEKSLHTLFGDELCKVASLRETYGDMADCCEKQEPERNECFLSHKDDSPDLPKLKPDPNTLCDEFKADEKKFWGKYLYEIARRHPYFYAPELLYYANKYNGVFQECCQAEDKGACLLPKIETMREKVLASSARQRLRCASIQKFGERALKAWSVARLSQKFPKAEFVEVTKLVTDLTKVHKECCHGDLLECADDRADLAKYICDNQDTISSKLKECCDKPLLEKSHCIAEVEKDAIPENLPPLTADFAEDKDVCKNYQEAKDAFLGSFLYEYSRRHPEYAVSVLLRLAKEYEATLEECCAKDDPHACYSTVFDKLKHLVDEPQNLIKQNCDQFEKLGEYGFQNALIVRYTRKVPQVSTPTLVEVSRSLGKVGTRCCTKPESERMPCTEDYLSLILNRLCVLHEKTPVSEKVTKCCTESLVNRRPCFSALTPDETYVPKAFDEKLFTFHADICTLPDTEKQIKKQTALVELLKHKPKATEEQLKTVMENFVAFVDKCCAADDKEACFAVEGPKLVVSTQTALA

Row | Binder | IC50 of indirect killing assay to evaluate the internalization in AsPC1 cells [1] [pM] | Kd [2] [pM] | OD450 (BSA [3]) [OD450] | binding result (BSA [4]) | OD450 [5] [OD450]
1 | B1 | 140 | 170 | – | – | –
2 | B2 | – | – | 0.0718 | no binding | 1.72
3 | B3 | 150 | 310 | – | – | –
4 | B4 | – | – | 0.0429 | no binding | 1.48
5 | B5 | 80 | 740 | – | – | –
6 | B6 | – | – | 0.0425 | no binding | 1.66
7 | B7 | – | – | 0.0475 | no binding | 1.48
8 | B8 | 90 | 280 | – | – | –
9 | B9 | 90 | 130 | – | – | –
10 | B10 | – | – | 0.0432 | no binding | 1.62
11 | B11 | – | – | 0.0468 | no binding | 1.84
12 | B12 | – | – | 0.041 | no binding | 1.88
13 | B13 | 190 | 310 | – | – | –
14 | B14 | – | – | 0.0399 | no binding | 1.79
15 | B15 | – | – | 0.0431 | no binding | 1.6
